Data reported in patent US20110159025.

What was measured:
HIV-2 capsid (CA) = HIV-2 capsid (CA) (UniProt P04590)
[1] = target: HIV-1 capsid mutant G89V (pLaiΔEnv-GFP3 G89V) (UniProt P03348)
[2] = system: HIV-1 capsid (CA), wild type, newly synthesized from HIVGFP (NL4-3 derived)

In the case of cyclophilin A (CypA), the “infection and activation of MDDC” value (HIV-2 capsid (CA)) was “has the potential to infect and activate MDDC in a CypA-dependent manner”, the “CD86 expression in infected MDDC” value [1] was “resulted in substantially reduced CD86 expression at similar levels of infection” and the “CD86 expression in MDDC infected with HIVGFP(G)+SIVVLP(G), Cyclosporin A added at different times” value [2] was “Up to 24 h, Cyclosporin A (CsA) reduces CD86 expression”. The “CD86 up-regulation in MDDC after shRNA knockdown of CypA” value [2] was “prevented CD86 up-regulation following infection with HIV-1 (HDVIRESRFP(G), encoding the reporter RFP), but not following treatment with LPS” and the “MDDC activation (CD86 up-regulation) under Cyclosporin A” value [2] was “prevented MDDC activation following infection with HIVGFP(G) and SIVVLP(G), but not following treatment with LPS”.
